Three molecules from patent publication US20030113322A1 (published 2003) can be followed below.

No end group written: not given here.

For the test, the target named is T1, biotinylated recombinant human soluble CD4 (rhCD4, Repligen) (human, UniProt P01730 26-396, limits assumed, biotinylated (sites not given)).
T1 construct: Soluble form, bought; biotinylated with a commercial reagent; also called biotinylated-rhCD4
The test is described as follows: Spot: cellulose-bound dodecapeptide, 20 nM biotinylated rhCD4. As for the experimental part: The saturated membrane was incubated with a 20 nM solution of biotinylated-rhCD4 for 2 h at 37° C. Bound biotinylated-rhCD4 was detected by incubating the membrane for 1 h at 37° with a 1:3000 solution of alkaline phosphatase-conjugated streptavidin (Sigma, St. Louis, Mo., USA) and subsequent addition of 5-bromo-4-chloro-3-indolyl phosphate substrate. […] In all cases, the reactivity of the spots was evaluated by scanning the membrane and measuring the intensities of the spots with the NIH image 1.61 software.
The anti-CD4 immunoreactivity of these peptides was assessed by incubating the membrane with biotinylated-rhCD4.
Consider IYSYLAWYQQKQ (also: bound to cellulose membrane (Spot synthesis), also called VL peptide 29) [cellulose-bound dodecapeptide 29 of the 13B8.2 VL sequence (linear form of CB8)], for which the binding result was “binds”.

For the molecule LTTFGVHWVRQS (also: bound to cellulose membrane (Spot synthesis), also called VH peptide 29) [cellulose-bound dodecapeptide 29 of the 13B8.2 VH sequence (linear form of CB1)], the binding result is “binds”.

On to TTFGVHWVRQSP (also: bound to cellulose membrane (Spot synthesis), also called VH peptide 30) [cellulose-bound dodecapeptide 30 of the 13B8.2 VH sequence (linear form of CB2)], for which the binding result was “binds”.
